The text below walks through data of US20100158926A1.

Changes are numbered by the printed parent chain.

The target of test [1] is human ErbB2 ECD-myc/His fusion protein (human). The experiment in a line: SPR, high resolution Biacore T100; mAb captured on goat anti-human IgG, hHer-2(ECD)cMyc injected; 1:1 fit. (In SPR one partner is held on a chip, and binding of the other changes the refractive index at the surface.)
For test [2], the target named is human ErbB2, full length, on cells (B300.19/hErbB2 clone #44; MCF7; BT474; SKBR3) (human).
Test [3] shares this target. This is another data set of the same source.
Test [4] shares this target. The source holds these as a separate data set.
The target is the same in test [5]. The source holds these as a separate data set.
For test [6] the target is unchanged. The source holds these as a separate data set.
Test [7] has as its target human ErbB2 ECD-myc/His fusion protein (human). The experiment in a line: limited antigen ELISA, 31 ng/ml antigen coated, supernatant 1:25, OD 450 nm. (ELISA stands for enzyme-linked immunosorbent assay.)
Test [8] deals with human ErbB2, full length, on cells (B300.19/hErbB2 clone #44; MCF7; BT474; SKBR3) (human). The source holds these as a separate data set.
Test [9] addresses human ErbB2 ECD-myc/His fusion protein (human). The experiment in a line: SPR, medium resolution Biacore 2000; mAb captured on goat anti-human IgG, ErbB2(ECD)-cMyc/His injected; 1:1 fit.

B1: monoclonal antibody 1.39 (antibody, V domains shown)
VH: QLQLQESGPGLVKPSETLSLTCTVSGGSISSSTYYWGWIRQPPGKGLEWIGTIYYSGSTYYNPSLKSRVTISVDTSKNQFSLKLNSVTAADTAVYYCARHHWVFDYWGQGTLVTVSS
VL: EIVLTQSPDFLSVTPKEKVTITCRASQIIGSSLHWYQQKPDQSPKLLIKYASQSFSGVPSRFSGSGSGTDFTLTLNSLEAEDAATYYCHQSTILPWTFGQGTKVEIK
In test [1], B1 displayed a Kd of 13.4 nM, a koff of 0.000214 s⁻¹ and a kon of 16000 M⁻¹ s⁻¹. Also, the 24 hr pTyr inhibition % (line 1*39) in test [2] is 99%. Further, in [3], the N1 % Inhibition @40 µg/ml, BT474 cell proliferation came to 29%; the N1 EC50 (ng/ml), inhibition of BT474 cell proliferation amounted to 156 ng/mL; the N2 EC50 (ng/ml), inhibition of BT474 cell proliferation is 42.3 ng/mL. Also, in test [4], the % Inhibition @10 µg/ml (n1), ErbB2 phosphorylation in BT474 cells at 48 hours was determined as 37%. For the same molecule, in [5], the % inhibition @36 µg/ml, SKBR3 cell proliferation stood at 41% and the EC50 (ng/ml), inhibition of SKBR3 cell proliferation turned out to be 68.9 ng/mL. Further, in test [6], the % Inhibition @10 µg/ml, Heregulin-induced MCF7 cell proliferation amounted to 89% and the EC50 (ng/ml), inhibition of Heregulin-induced MCF7 cell proliferation came to 479 ng/mL. In test [7], this molecule came in with an LA at 31 ng/ml of 2.57 OD. In test [8], this molecule came in with an EC50 (ng/ml) n1, inhibition of Heregulin-induced ErbB2 phosphorylation in MCF7 cells of 46.9 ng/mL and an EC50 (ng/ml) n2, inhibition of Heregulin-induced ErbB2 phosphorylation in MCF7 cells of 26.3 ng/mL. For the same molecule, in test [9], the Kd amounted to 2 nM, the koff turned out to be 0.000236 s⁻¹ and the kon is 115000 M⁻¹ s⁻¹.

B2: monoclonal antibody 1.100.1 (antibody, V domains shown)
VH: B1 VH with S28F, T33S, S58T, P63S, K77Q, N85S
VL: B1 VL with I2V, L11Q, V19I, S31T, Q38K, D70E, L75I, A83T, I93N
In turn, B2 yielded a 24 hr pTyr inhibition % (line 1*100) in [2] of 95%. In addition, in test [3], the N1 % Inhibition @40 µg/ml, BT474 cell proliferation worked out at 35%; the N1 EC50 (ng/ml), inhibition of BT474 cell proliferation was found to be 169 ng/mL; the N2 EC50 (ng/ml), inhibition of BT474 cell proliferation came to 91.1 ng/mL. The molecule further had a % Inhibition @10 µg/ml (n1), ErbB2 phosphorylation in BT474 cells at 48 hours in test [4] of 37%. In [5], this molecule came in with a % inhibition @36 µg/ml, SKBR3 cell proliferation of 54% and an EC50 (ng/ml), inhibition of SKBR3 cell proliferation of 61.3 ng/mL. Further, in test [6], the % Inhibition @10 µg/ml, Heregulin-induced MCF7 cell proliferation was determined as 95% and the EC50 (ng/ml), inhibition of Heregulin-induced MCF7 cell proliferation was determined as 2040 ng/mL. The LA at 31 ng/ml in test [7] was 3.54 OD. In test [8], the EC50 (ng/ml) n1, inhibition of Heregulin-induced ErbB2 phosphorylation in MCF7 cells worked out at 39.9 ng/mL and the EC50 (ng/ml) n2, inhibition of Heregulin-induced ErbB2 phosphorylation in MCF7 cells was found to be 33.7 ng/mL. In test [9], this molecule showed a Kd of 2.9 nM, a koff of 0.000301 s⁻¹ and a kon of 104000 M⁻¹ s⁻¹.

B3: monoclonal antibody 1.14.1 (antibody, V domains shown)
VH: B1 VH with G27D, S32F, T33I, N85R, L112Q
VL: B1 VL with E1D, S7F, L11Q, I28V, L75I, A80V, I106V
In test [2], B3 had a 24 hr pTyr inhibition % (line 1*14) of 100%. In test [3], this molecule returned an N1 % Inhibition @40 µg/ml, BT474 cell proliferation of 38%; an N1 EC50 (ng/ml), inhibition of BT474 cell proliferation of 136 ng/mL; an N2 EC50 (ng/ml), inhibition of BT474 cell proliferation of 63 ng/mL. The molecule further came in with a % Inhibition @10 µg/ml (n1), ErbB2 phosphorylation in BT474 cells at 48 hours in test [4] of 37%. In test [5], this molecule displayed a % inhibition @36 µg/ml, SKBR3 cell proliferation of 52% and an EC50 (ng/ml), inhibition of SKBR3 cell proliferation of 35.7 ng/mL. In test [6], this molecule showed a % Inhibition @10 µg/ml, Heregulin-induced MCF7 cell proliferation of 96% and an EC50 (ng/ml), inhibition of Heregulin-induced MCF7 cell proliferation of 640 ng/mL. Also, in test [7], the LA at 31 ng/ml turned out to be 3.99 OD. In test [8], this molecule gave an EC50 (ng/ml) n1, inhibition of Heregulin-induced ErbB2 phosphorylation in MCF7 cells of 33.7 ng/mL and an EC50 (ng/ml) n2, inhibition of Heregulin-induced ErbB2 phosphorylation in MCF7 cells of 22.9 ng/mL. Further, in test [9], the Kd came to 2.5 nM, the koff came to 0.000256 s⁻¹ and the kon came out at 102000 M⁻¹ s⁻¹.

One may read the Kd as the constant that tells how readily two partners part at equilibrium. Low readings indicate higher affinity, high ones lower affinity. As a reminder, the koff is the rate constant with which the complex falls apart. Low values mean slow dissociation, high ones fast dissociation. The kon is the rate constant with which the complex forms. The low end stands for slower complex formation, the high end for faster complex formation.
